Three substances from patent US20130039857 can be followed below.

Data set [1] deals with 141 overlapping peptides (12-15 residues in length) corresponding to the LKB1 sequence.
Data set [2] relates to His-LKB1 fusion protein (purified).
The target in data set [3] is LKB1 (endogenous, in skeletal muscle and 3T3L1 adipocyte extracts) (UniProt Q9WTK7).

Consider “recombinant His-FynT kinase (Calbiochem)”, for which the “in vitro phosphorylation of an overlapping peptide array (Phosphosite Detector)” value in data set [1] is “This analysis identified five tyrosines (Y60, Y156, Y166, Y261, and Y365) as potential LKB1 phosphorylation acceptor sites for the Fyn kinase”. For the same substance, the “tyrosine phosphorylation in an in vitro kinase reaction (PY100 phosphotyrosine immunoblot)” value in data set [2] was “purified His-LKB1-tagged fusion protein was tyrosine phosphorylated by purified recombinant Fyn kinase in vitro”. For the substance Fyn expressed from pcDNA3.1-Fyn-V5, the “tyrosine phosphorylation of LKB1 immunoprecipitates from 3T3L1 adipocytes (PY100 immunoblot)” value in data set [3] is recorded as “Immunoblotting of LKB1 immunoprecipitates with the PY100 phosphotyrosine antibody demonstrated Fyn-induced tyrosine phosphorylation of LKB1”. For “Fyn-CA, constitutively active Fyn mutant (pcDNA3.1-Fyn-CA(Y527F)-V5)”, the “tyrosine phosphorylation of endogenous LKB1 immunoprecipitated from transfected tibialis anterior muscle (PY100 immunoblot)” value in data set [3] was “In the absence of Fyn-CA, there was a relatively low level of LKB1 tyrosine phosphorylation that was significantly increased by the expression of Fyn-CA”.
